The nanobody polyreactivity screen of Harvey et al. (2022)

Experiment: yeast display, Sf9 membrane polyspecificity reagent, FACS + sequencing; frameworks hold sequencing errors
Outline: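 After 36–48 hours of galactose induction, yeast (Saccharomyces cerevisiae BJ5465) displaying a synthetic nanobody library were stained at 4 °C for 1 hour with 10% biotinylated, detergent-solubilized Sf9 membrane reagent. Streptavidin microbeads enriched the stained cells before FACS sorting into low and high (top ~1%) gates on anti-HA and streptavidin fluorescence. Each clone's polyreactivity label reflects its gate of origin.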

| Sequence | polyreactivity (PSR sort gate) |
| --- | --- |
| QVQLVESGGGLVQAGGSLRLSCDASGRTSVIYAMGWYRQAPGKERELVASIRRGGSTSYADSVKGRFTISRDNAKNTVYLQMNSLKPEDTAVYYCASTFKSGMDYWGQGTQVTVSS | high polyreactivity |
| QVQLVESGGGLVQAGGSLRLSCDASGSIFDHNSMGWYRQAPGKERELVAAISSNGVRTYYADSVKGRFTISRDNAKNTVYLQMNSLKTEDTAVYYCNAQRFVGLNVYGYDYWGQGTQVTVSS | high polyreactivity |
| QVQLVESGGGLVQAGGSLRLSCDASGSIFGKYTMGWYRQAPGKVRELVAAISKRGGSTRYADSVKGRFTISRDNAKNTVYLQMNSLKPEDTAVYYCAAYRYWMYRYQIVNYGYWGQGTQVTVSS | high polyreactivity |
| QVQLVESGGGLVQAGGSLRLSCDASGSIFKLNAMGWYRQAPGKERELVAAITSSGDSTYYADSVKGRFTISRDNAKNTVYLQMNSLKPEDTAVFYCNREDAGIMDYWGQGTHVTVSS | low polyreactivity |
| QVQLVESGGGLVQAGGSLRLSCDASGSIFSKYAMGWYRQAPGKERELVAAISWSGTSTYYADSVKGRFTISRDNAKNTVYLQMNSLKPEDTAVYYCAASSPRSLSLLGYWGQGTQVTVSS | low polyreactivity |
| QVQLVESGGGLVQAGGSLRLSCDASGSILGTYALGWSRQAPGKERELVAAISSSGRTSYADSVKGRFTISRDNAKNTVYLQMNSLKPEDTAVYYCIASNYIVLINDPDAAPWLYDYWGQGTQVTVSS | low polyreactivity |
| QVQLVESGGGLVQAGGSLRLSCDASGSTFGWYAMGWYRQAPGKERELVAAISKNGGRTYYADSVKGRFTISRDNAKNTVYLQMNSLKPVDTAVYYCNKVSKTVRDFDYWGQGTQVTVSS | high polyreactivity |
| QVQLVESGGGLVQAGGSLRLSCDASGSTFNANAMGWYRQAPWKERVLVAAISWNGGRTYYADSVKGRFTISRDNAKNTVYLQMNSLKPEDTAVYYCALVYTAGRNYYYWGQGTQVTVSS | high polyreactivity |
| QVQLVESGGGLVQAGGSLRLSCDASGSTFPFYAMARYRQAPRKERELVAAIRNTGNTYYADSVKGSFTISRDNAKNTAYLQMNSLNPEDPAVYYCAKALRSASDYWGQGTQVTVSS | low polyreactivity |
| QVQLVESGGGLVQAGGSLRLSCDASGSTFVRYVMRWYRHAPGKEMELVAAISRRGGSTYYADSVKGRFTISRDNAKNTVYLQMNSLKPEDTAVYYCARTVCYRTLLESDSCGQGTQVTVSS | high polyreactivity |
| QVQLVESGGGLVQAGGSLRLSCDASGSTFWFNDMGWYRQAPGKERELVAAIDWSDGSTYYADSVKGRFTISRDNAKNTVYLQMNSLKPEDTAVYFCAADHRYSARRSVPTLYDYWGQGTQVTVSS | low polyreactivity |
| QVQLVESGGGLVQAGGSLRLSCDASGSTIYPYAMGWYRQAPGKERELVAAISSGGRTYYADSVKGRFTISRDNAKTTVYLQMNSLKPEDTAGYYCATYYYGWYTIDFYYWGQGTQVTVSS | high polyreactivity |
| QVQLVESGGGLVQAGGSLRLSCDDSGRTFYPYAMGRYRHAPGKERELVAAISYRGGSTYYADSVKGRFTISRDNAKNTVYLQMNCLKPEDRAVYYCAKRGYASGSKWDYGYWGQGTQLTVSS | high polyreactivity |
| QVQLVESGGGLVQAGGSLRLSCGASGGFFYFNAMGRYRQAPGKEREVVASITWSGGNTYYADSVKGRFTISRDNAKHTVDLQMNSLTPEDTAVYYCAADTLEYRPTYDYWGQGTQVTVSS | low polyreactivity |
| QVQLVESGGGLVQAGGSLRLSCGASGRIFAVNAMGWYRQARGKERELVAAITNVGSTNYADSVKGRFTISRDNAKNTVYLQMNSLKPEDTAVYYCNADLAQEDWKMDYWGLGTQVTVSS | low polyreactivity |
| QVQLVESGGGLVQAGGSLRLSCGASGRIFPGNAMGWYRQATGKERELVAGISFSGGRTYYADSVKGRFTISRDNAKNTVYLQMNSLTPEDSAVYYCATKYLQHWWRYDYWGQGTQVTVSS | low polyreactivity |
| QVQLVESGGGLVQAGGSLRLSCGASGRTFAIYVMGWYRQAPGKERELVAAISRGGSTYYADSVKGRFTISRDNAKNTVYLQMNSLKPEDTAVYYCAAGTGTTSRYYYWGQGTQVTVSS | high polyreactivity |
| QVQLVESGGGLVQAGGSLRLSCGASGSFFYFYSMGWYRQAPGKEREVVAAITDGGSTHYADSVKGRFTISRDNAKNTVDLQMNSLKPEDTAVYYCAAQWHYYLGSGYQYDYWGQGTQVTVSS | low polyreactivity |
| QVQLVESGGGLVQAGGSLRLSCGASGSTSDIYAMGWYRQAPGKESEFGAAISLTGGTTYYADSVKGRFTISCENAKNTVYLQMNSLKQEDTAVYYCNADVGWWGYDDDYWGQGTQVTVSS | high polyreactivity |
| QVQLVESGGGLVQAGGSLRLSCGASGYIFDRYPMGWYRQAPGKEREVVASISRRGGSTYYADSVKGRFTISRDNAKNTVYLQMNSLKPEATAVYYCAAKWPFRRSAVVRYDYWGQGTQVTVSS | high polyreactivity |
| QVQLVESGGGLVQAGGSLRLSCPASASNYAAYTMAWYRQAPGKERECVAAITSGGSTNYADSVKGRFTISRDNAKNTVYLQMNSLKPEDTAVYYCAAEDLNYYFWRSLWFGIYDDWGQGTQVTVSS | low polyreactivity |
| QVQLVESGGGLVQAGGSLRLSCPASGFIFSIYTMGWYRQAPGKERELVAAITRSGSSTYYADSVKGRFTISRDNAKNTVYLQMNSLKPEDTAVSYCNRLCFGQYQPFYGYWGQGTQVTVSS | high polyreactivity |

| Sequence | polyreactivity (PSR sort gate) |
| --- | --- |
| QVQLVESGGGLVQAGGSLRLSCPASGFTFYVNAMGWSRQAPGKERELVAGITTSDGSTYYADSVKGRFTISRDNAKNNVYLQMNSLKPEDTAVYYCAAAITWYQLYQRSGGDYWGQGTQVTVSS | low polyreactivity |
| QVQLVESGGGLVQAGGSLRLSCPASGFTILDYAMGWYRQAPGKEREMVATINWSDVSTYYADSVKGRFTISRDTAKNTVYLQMNSLKPEDTAVYYCAVDVLTVGQSYDHWGQGTQVTVSS | high polyreactivity |
| QVQLVESGGGLVQAGGSLRLSCPASGGIFEGNAMGWYRQAPGKEMELVASITYGGGSTYYADSVKGRFTISRDNAKNTVYLQMNSLKPEDTAVYYCAADATTPGVQNGYGSWGQGTQVTVSS | low polyreactivity |
| QVQLVESGGGLVQAGGSLRLSCPASGITFVPNAMGWYRQAPGKERELVARIDNGVSTNYADSVKGRFTISRDNAKNTVYLQMNSLKPEDTAVYYCAKDGYWGDWDLDYWGQGTQVTVSS | low polyreactivity |
| QVQLVESGGGLVQAGGSLRLSCPASGLIFLHNAMGWYRQAPGKERELVATISLSGGSTYADSVKGRFTISRDNAKNTVYLQLYSLKPEDTAVYYCAAGGQYYIIRYDYWGQGTQVTVSS | low polyreactivity |
| QVQLVESGGGLVQAGGSLRLSCPASGLTFQRYAMGWYRQAPGKERELVAAITVGGGRTYYADSVKGRFTISRDNAKNTVYLQMNSLKPEDTAVYYCAADSHASTYDYWGQGTQVTVSS | low polyreactivity |
| QVQLVESGGGLVQAGGSLRLSCPASGLTFWLYALGWYRQAPGKERELVAAITRSGGSTSYADSVKGRFTISRDNAKNTVYLQMNSLKPEDTAVYYCNADSPGYTAVRLVEFDYWGQGTQVTVSS | low polyreactivity |
| QVQLVESGGGLVQAGGSLRLSCPASGNIFLSYAMGWYRQAPGKERELVAGISASGGRTYYADSVKGRFTISRDNAKNTVYLQMNSLKPEDTAVYYCATRGQTRTTTRYYSWGQGTQVTVSS | high polyreactivity |
| QVQLVESGGGLVQAGGSLRLSCPASGRIFVLGWYRQAPGKERELVAAINDSGDITYYADSVKGRFSISRDNAKYTVYLQMNSLKPEDTAVYYCAASAAYYGFYKSVTYDYWGQGSQVTVSS | low polyreactivity |
| QVQLVESGGGLVQAGGSLRLSCPASGRIFYKYAMGWYRQAPGKERELVAAISSTGGSTNYADSVKGRFTISRDNAKNSVYFQMNSLKPEDTAVYYCNAVSRYYYPYYYWGQGTQVTVSS | low polyreactivity |
| QVQLVESGGGLVQAGGSLRLSCPASGRIFYVYAMGWYRQAPGKERELVAAITSSGGSTNYADSVKGRFTISRDNAKNTVYLQMNSLKPEDTAVYYCAAKPYYIPTRTYSHYNFWGQGTQVTVSS | high polyreactivity |
| QVQLVESGGGLVQAGGSLRLSCPASGRTFILNDMGRYRQAPGKEREFVATIDWSGGSSYYADSVKGRFTISRDNAKNTVFLQMNSLKPEDTAVYYCNRAFVPVYDLDYYWGQGTQVTVSS | low polyreactivity |
| QVQLVESGGGLVQAGGSLRLSCPASGSICRYYAMGWYRQAPGKERELVAVITRGGSTYYADSVKGRFTISRDNAKNTVYLQMNSLKPEDTAVYYCAADYWPAGLDRGYWGQGTQVTLSS | low polyreactivity |
| QVQLVESGGGLVQAGGSLRLSCPASGSIFDVYTMGWYRQAPGKEMELVAAINTGGGSTYYADSVKGRFTISRDTAKNTVYLQMYSMKPEDTAVYSCAKEVSPYWTFDYWGQGTQVTVSS | low polyreactivity |
| QVQLVESGGGLVQAGGSLRLSCPASGSIFPTYAMGRYRQAPGKERELVAAITTSGGNTFYADSVKGRFTISRDNAKNTVYLQMNRLKPEDTAVYYCAAYYSPYTVEYDYWGQGTLVTVSS | low polyreactivity |
| QVQLVESGGGLVQAGGSLRLSCPASGSIFRFYTMGWYRQAPGKERELVASITWTGGSSYYADSVKGRFTISRDNAKNTVYLQMNSLKPEDTAVYYCAARRYLRLVGRYDYWGQGTQVTVSS | low polyreactivity |
| QVQLVESGGGLVQAGGSLRLSCPASGSISRQYAMGWYRQAPGKERELVAAITVRGGSTYYADSVKGRFTISRDNAKNTVYLQMNSLKPEDTAVYYCAKYTRYSASYDYWGQGTQVTVSS | high polyreactivity |
| QVQLVESGGGLVQAGGSLRLSCPASGSTFEDNAMGWYRQAPGKERELVAAISRTGGRTYYADSVKGRFTISRDNAKNTVYLQMNSLKPEDTAVYYCNAVYPAQRMDYWGQGTQVTVSS | high polyreactivity |
| QVQLVESGGGLVQAGGSLRLSCPASGSTFQYNPLGWYRQAPGKERELVAAISRRGGSTYYADSVKGRFTISRDNAKNTVYLQMNSLKPEDTAVYYCAVSAYKGYDYWGQGTQVTVSS | high polyreactivity |
| QVQLVESGGGLVQAGGSLRLSCPASGSTFRHYVMGRYRQAPGKERELVAAINWTSGSTNYADSVKGRFTISRDNAKNTVYFQMNSLKPEDTAVYYCAARGPVGYGWRYRPWHDYWGQGTQVTVSS | high polyreactivity |
| QVQLVESGGGLVQAGGSLRLSCPASGSTIPLYAMGWYRPAPGKERELVAAISRRGGRTYYADSVKGRFTISRDNAKNSVYLQMNSLKPEDTAVYYCATAQGSRVDYWGQGTQVTVSS | high polyreactivity |
